In patent US20260274955A1 (JANUX THERAPEUTICS, published 2026):

Experiments:
[1] = molecular target: Anti-CD28 Fab (SEQ ID NOs: 202, 203); assay: phage binding ELISA on captured Fab, competitor CD28 antigen;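 further: clonal phage supernatant binding in wells preincubated with CD28 antigen in blocking buffer, detected by HRP-conjugated anti-M13 antibody ELISA, compared with blocking buffer alone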
Method: (§1) Clonal phage were harvested as crude supernatants and screened via standard ELISAs. […] Prior to the addition of clonal phage, wells were incubated with blocking buffer and CD28 antigen or blocking buffer alone. Without washing or aspirating, clonal phage supernatants were then added to the wells and incubated for a short time. Wells were then washed followed by detection of bound phage using a horse radish conjugated anti-M13 antibody.

[2] = molecular target: Anti-CD28 Fab (SEQ ID NOs: 202, 203); assay: phage binding ELISA on captured Fab;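 further: clonal phage supernatants added briefly to wells pre-incubated with CD28 antigen or with blocking buffer only, then washed, bound phage read by ELISA using HRP-coupled anti-M13 antibody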
Method: as §1

Chain of Anti-CD28 Fab (SEQ ID NOs: 202, 203) (VH, as listed by the source, chain 1 of 2): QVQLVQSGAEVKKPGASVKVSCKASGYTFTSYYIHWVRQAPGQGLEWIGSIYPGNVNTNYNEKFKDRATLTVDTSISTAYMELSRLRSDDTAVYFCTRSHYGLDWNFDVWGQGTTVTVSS
Chain of Anti-CD28 Fab (SEQ ID NOs: 202, 203) (VL, as listed by the source, chain 2 of 2): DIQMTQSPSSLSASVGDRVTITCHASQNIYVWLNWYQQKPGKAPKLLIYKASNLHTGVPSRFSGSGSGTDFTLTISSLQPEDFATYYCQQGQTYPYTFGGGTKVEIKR

Row | Binder | Anti-CD28 Fab signal in the presence of CD28 [1] | Anti-CD28 Fab (SEQ ID NOs: 202, 203) signal [2]
1 | YCDGHMDAYMSKCL [Phage-847] | 0.06 | 0.65
2 | YCQGHAPWYMVKCL [Phage-840] | 0.08 | 0.69
3 | YCEGHLPQYLAKCY [Phage-844] | 0.08 | 0.67
4 | YCDGHSMTYMAKCI [Phage-815] | 0.06 | 0.84
5 | YCDGHDPQYIRKCI [Phage-817] | 0.06 | 0.83
6 | YCAGHLEMYMSKCL [Phage-798] | 0.07 | 0.91
7 | YCDGHELMYMEKCL [Phage-797] | 0.06 | 0.92
8 | YCQGHALQYLQKCL [Phage-835] | 0.08 | 0.71
9 | YCDGHAGIYVLKCL [Phage-829] | 0.08 | 0.75
10 | YCQGHSVQYMAKCL [Phage-825] | 0.06 | 0.77
11 | YCDGHNPVYLAKCL [Phage-830] | 0.08 | 0.74
12 | YCDGHHLEYIDKCL [Phage-838] | 0.06 | 0.69
13 | YCDGHSAEYLGKCL [Phage-795] | 0.07 | 0.92
14 | YCAGHIGEYMDKCL [Phage-828] | 0.58 | 0.75
15 | YCEGHLPWYMSKCL [Phage-837] | 0.09 | 0.69
16 | YCDGHEPQYMTKCL [Phage-843] | 0.1 | 0.68
17 | YCAGHSVQYMYKCL [Phage-832] | 0.06 | 0.74
18 | YCAGHAAIYMAKCL [Phage-814] | 0.07 | 0.85
19 | YCAGHSAEYIQKCL [Phage-823] | 0.08 | 0.8

Row | Binder | Anti-CD28 Fab signal in the presence of CD28 [1] | Anti-CD28 Fab (SEQ ID NOs: 202, 203) signal [2]
20 | YCDGHLPRFMVKCL [Phage-839] | 0.07 | 0.69
21 | YCMGHSAEYMGKCL [Phage-848] | 0.06 | 0.64
22 | YCEGHAAVYMHKCL [Phage-846] | 0.09 | 0.67
23 | YCDGHTGVYKWKCI [Phage-827] | 0.06 | 0.76
24 | YCEGHAREYMDKCL [Phage-820] | 0.07 | 0.8
25 | YCDGHSPQYLWKCL [Phage-822] | 0.05 | 0.8
26 | YCVGHSPEYIWKCL [Phage-796] | 0.06 | 0.92
27 | YCEGHSSEYMVKCL [Phage-826] | 0.06 | 0.77
28 | YCEGHAQQYMLKCL [Phage-831] | 0.05 | 0.74
29 | YCEGHAQMYMLKCL [Phage-851] | 0.06 | 0.64
30 | YCAGHMPQYMSKCL [Phage-834] | 0.05 | 0.72
31 | YCVGHLPLYMPNCL [Phage-842] | 0.11 | 0.68
32 | YCAGHLPQYVSKCL [Phage-836] | 0.06 | 0.7
33 | YCAGHTQEYMLKCL [Phage-824] | 0.06 | 0.78
34 | YCEGHLPMYMQKCM [Phage-818] | 0.07 | 0.82
35 | YCAGHSLQYLGKCY [Phage-813] | 0.06 | 0.86
36 | YCEGHMSEYMRKCL [Phage-841] | 0.1 | 0.69
37 | YCDGHKWEYLQKCL [Phage-816] | 0.06 | 0.84
38 | YCEGHFGMYMSKCL [Phage-833] | 0.07 | 0.73
